Common to all, as to assay type: biochemical
For data set [1], the system named is apoA-I rHDL. Description: Inactivation kinetics of rePON1 192 isozymes bound to rHDL-apoA-I (EDTA/β-mercaptoethanol, residual phenyl acetate hydrolysis). The conditions noted are these: apoA-I rHDL, 50-fold molar excess; EDTA and β-mercaptoethanol, 37° C. The procedure: (§1) FIG. 1 is a graph showing the inactivation kinetics of the wild-type rePON1-192K (SEQ ID NO:2), -192R (SEQ ID NO:4) and -192Q (SEQ ID NO:6) isozymes, bound to rHDL-apoA-I, or in buffer. Delipidated enzymes were incubated with a 50-fold excess of rHDL-apoA-I, or in activity buffer, and subjected to inactivation in the presence of EDTA (5 mM) and β-mercaptoethanol (10 mM) at 37° C. Residual activity at various time points was determined by initial rates of phenyl acetate hydrolysis (2 mM) and plotted as percent of the activity at time zero. Data were fitted to a single exponential for wild-type rePON1-192K on rHDL-apoA-I, and to double-exponentials for the remaining samples. The inactivation rate constants and amplitudes were derived from this fit;
(§2) Inactivation rates of rePON1s were measured as described [Gaidukov, L. and D. S. Tawfik, Biochemistry, 2005. 44(35): p. 11843-54]. Briefly, rePON1 samples were delipidated using Bio-Beads SM-2 (BioRad) and incubated in buffer, or with 50-fold molar excess of rHDL-apoA-I. EDTA (10 mM) and β-mercaptoethanol (20 mM) were added, and samples were incubated at 37° C. Residual activity at different time points was determined with 2 mM phenyl acetate, and inactivation rates were fitted to either mono- or double-exponentials [Gaidukov, L. and D. S. Tawfik, Biochemistry, 2005. 44(35): p. 11843-54].
(§3) The resultant inactivation profiles of wt rePON1 (SEQ ID NO: 2), rePON1-192Q (SEQ ID NO: 6) and rePON1-192R (SEQ ID NO: 4), were fitted to exponential curves as illustrated in FIG. 1.

Data set [2] can be described thus: Inactivation kinetics of rePON1 192 isozymes in activity buffer. Particulars: EDTA and β-mercaptoethanol, 37° C. The procedure:
as §1, §2, §3

The subject of data set [3] is apoA-I rHDL. Description: Stimulation of enzymatic activity of rePON1 192 isozymes by rHDL-apoA-I. Particulars: for Vmax (%) activation factor: relative to delipidated enzyme (100%). The source says: The activity is presented in relation to the initial activity of the delipidated enzymes (percentage of stimulation). Data were fitted to the Langmuir saturation curve, from which the activation factor (Vmax) and the apparent affinity (Kapp) were derived;
Stimulated activity is presented as the percentage of the initial activity of the delipidated enzymes (corresponds to 100%). Data were fitted to the Langmuir saturation curve, from which the activation factor (Vmax) and the apparent affinity (Kapp) were derived;
Delipidated rePONs at 0.2 μM were incubated with a range of rHDL concentrations (0.1-10 μM) for 3 hrs at 37° C. Enzymatic activity was determined in activity buffer (50 mM Tris pH 8.0, 1 mM CaCl2) with substrates at 1 mM concentrations as described [Gaidukov, L. and D. S. Tawfik, Biochemistry, 2005. 44(35): p. 11843-54]. 5-(thiobutyl)-butyrolactone (TBBL) was applied at 0.25 mM, and product formation was monitored spectrophotometrically at 412 nm using 5,5′-dithio-bis-2-nitrobenzoic acid (DTNB) as described [Khersonsky, O. and D. S. Tawfik, Chembiochem, 2006. 7(1): p. 49-53].
Stimulation of the enzymatic activity was examined by incubating rePON1 isozymes with a range of rHDL concentrations (at the HDL/PON ratio of 0.5-50), and measuring the catalytic activity with various substrates as detailed hereinabove. FIGS. 3A-B illustrate the enzymatic activity of the rePON1 isozymes with δ-nonanoic lactone as substrate (FIG. 3A) and thiobutyl butiryl lactone (TBBL) as substrate (FIG. 3B). FIGS. 4A-D illustrate the enzymatic activity of the rePON1 isozymes with γ-dodecanoic lactone as substrate (FIG. 4A), δ-valerolactone as substrate (FIG. 4B), phenyl acetate as substrate (FIG. 4C) and paraoxon as substrate (FIG. 4D). Data were fitted to the Langmuir saturation curve to give the activation factor Vmax (in percent relative to the delipidated PON1) and the apparent affinity Kapp.

Setting [4] is: substrate γ-dodecanoic lactone 1 mM.
Where [5] appears, read: substrate δ-nonanoic lactone 1 mM.

B1: rePON1-192R: recombinant PON1 with arginine at position 192, generated to mimic the human R isozyme (protein)
chain: MAKLTALTLLGLGLALFDGQKSSFQTRFNVHREVTPVELPNCNLVKGVDNGSEDLEILPNGLAFISSGLKYPGIMSFDPDKSGKILLMDLNEEDPVVLELGITGNTLDISSFNPHGISTFTDEDNTVYLLVVNHPDSSSTVEVFKFQEEEKSLLHLKTIRHKLLPSVNDIVAVGPEHFYATNDHYFADPYLRSWEMHLGLAWSFVTYYSPNDVRVVAEGFDFANGINISPDGKYVYIAELLAHKIHVYEKHANWTLTPLKSLDFDTLVDNISVDPVTGDLWVGCHPNGMRIFYYDPKNPPGSEVLRIQDILSEEPKVTVVYAENGTVLQGSTVAAVYKGKLLIGTVFHKALYCEL
modifications: rePON1-192R isozyme
notes: recombinant PON1 with arginine at position 192, generated to mimic the human R isozyme
As to B1, the “A2 (%) (amplitude of second, slow inactivation phase = HDL-bound fraction)” value in the data set with apoA-I rHDL [1] was 90%. Also, the “k1^inactiv (first, fast phase)” value in the data set on apoA-I rHDL [1] is 0.9 h⁻¹; in data set [2], 5.5 h⁻¹. Further, the “k2^inactiv (second, slow phase)” value worked out at 0.01 h⁻¹ in the data set on apoA-I rHDL [1] and 0.2 h⁻¹ in data set [2]. For the same molecule, the “reduction of Vmax compared to wt rePON1-192K” value with apoA-I rHDL [3] (all the substrates tested) is 10-30%. Further, the “Kapp (apparent affinity for HDL stimulation)” value came to 0.4 ± 0.1 µM in the data set on apoA-I rHDL [3] (substrate TBBL 0.25 mM); 0.8 ± 0.1 µM in the data set with apoA-I rHDL [3] (substrate phenyl acetate 1 mM); 0.9 ± 0.1 µM in the data set with apoA-I rHDL [3] (setting [4]); 1.5 ± 0.1 µM in the data set on apoA-I rHDL [3] (setting [5]); 1.1 ± 0.1 µM in the data set on apoA-I rHDL [3] (substrate δ-valerolactone 1 mM). Moreover, the “Vmax (%) activation factor” value in the data set with apoA-I rHDL [3] (substrate TBBL 0.25 mM) was found to be 579 ± 6%; in the data set with apoA-I rHDL [3] (substrate paraoxon 1 mM) it was 200 ± 1%; with apoA-I rHDL [3] (substrate phenyl acetate 1 mM), 336 ± 4%; with apoA-I rHDL [3] (setting [4]), 1258 ± 21%; in the data set with apoA-I rHDL [3] (setting [5]), 1351 ± 20%; in the data set with apoA-I rHDL [3] (substrate δ-valerolactone 1 mM) it was 1403 ± 13%.

The record behind these values is patent US20100028924A1, “Method Of Diagnosing Pon1-Hdl Associated Lipid Disorders” (Rappaport Family Institute Research in the Medical Sciences, priority 2006, published 2010).
